Measured values taken from patent publication US20250019437A1.
Numbering of substitutions follows the chain as printed.

T1: human TREM2 (triggering receptor expressed on myeloid cells 2) (human) (UniProt Q9NZC2)
T1 sequence (looked up): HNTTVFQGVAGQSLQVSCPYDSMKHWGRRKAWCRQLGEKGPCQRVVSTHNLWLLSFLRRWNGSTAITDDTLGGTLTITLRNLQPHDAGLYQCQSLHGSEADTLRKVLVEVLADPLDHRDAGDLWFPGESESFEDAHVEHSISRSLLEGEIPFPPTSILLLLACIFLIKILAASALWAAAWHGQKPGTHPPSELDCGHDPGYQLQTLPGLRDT

B1: 6E7 antibody affinity modulation variant V36 (antibody, V domains shown)
VH: EVQLVQSGAEVKKPGESLKISCKGSGYSFTSYWLAWVRQMPGKGLEWMGIIYPGDSDTRYSPSFQGQVTISADKSISTAYLQWSSLKASDTAMYFCARSRTFYYDSSDYFDYWGQGTLVTVSS
VL: DIQMTQSPSSVSASVGDRVTITCRASQGISSWLAWYQQKPGKAPKLLIYAASSRQNGVPSRFSGSGSGTDFTLTISSLQPEDFATYFCQQADSYPRTFGQGTKLEIK
B2: 6E7 antibody affinity modulation variant V38 (antibody, V domains shown)
VH: B1 VH with T30G, L34I, T58V, S99Q
VL: B1 VL with Y94H
B3: 6E7 antibody affinity modulation variant V39 (antibody, V domains shown)
VH: B1 VH with T30G, L34I, S61N, S99G
VL: B1 VL with R54L, Q55V, Y94S
B4: 6E7 antibody affinity modulation variant V37 (antibody, V domains shown)
VH: B1 VH with F29H, L34I, Q65A
VL: B1 VL with R54L, N56W
B5: 6E7 antibody affinity modulation variant V40 (antibody, V domains shown)
VH: B1 VH with T30G, L34I, T58V, S99Q, F110S
VL: B1 VL with R54L, N56L, S93R, Y94F
B6: 6E7 antibody affinity modulation variant V21 (antibody, V domains shown)
VH: B1 VH with L34I, S99Q, Y109F
VL: B1 VL with R54L, Y94F
B7: 6E7 antibody affinity modulation variant V32 (antibody, V domains shown)
VH: B1 VH with L34I, P62N, S99Q
VL: B1 VL with R54L, Y94F
B8: 6E7 antibody affinity modulation variant V20 (antibody, V domains shown)
VH: B1 VH with L34I, I50R, S99Q
VL: B1 VL with R54L, Y94F
B9: 6E7 antibody affinity modulation variant V91 (antibody, V domains shown)
VH: B1 VH with L34I, G54D, S99Q
VL: B1 VL with R54L, Y94F
B10: 6E7 antibody affinity modulation variant V18 (antibody, V domains shown)
VH: B1 VH with W33H, L34I, S99Q
VL: B1 VL with R54L, Y94F
B11: 6E7 antibody affinity modulation variant V23 (antibody, V domains shown)
VH: B1 VH with L34I, S99Q
VL: B1 VL with R54L, Y94F, R96L
B12: 6E7 antibody affinity modulation variant V78 (antibody, V domains shown)
VH: B1 VH with S28R, L34I, S99Q
VL: B1 VL with R54L, Y94F
B13: 6E7 antibody affinity modulation variant V71 (antibody, V domains shown)
VH: B1 VH with L34I, S99Q
VL: B1 VL with R54L, Y94E
B14: 6E7 antibody affinity modulation variant V93 (antibody, V domains shown)
VH: B1 VH with L34I, S99Q
VL: B1 VL with S31G, R54L, Y94F
B15: 6E7 antibody affinity modulation variant V79 (antibody, V domains shown)
VH: B1 VH with L34I, R59N, S99Q
VL: B1 VL with R54L, Y94F
B16: 6E7 antibody affinity modulation variant V92 (antibody, V domains shown)
VH: B1 VH with L34I, S99Q, Y103H
VL: B1 VL with R54L, Y94F
B17: 6E7 antibody affinity modulation variant V82 (antibody, V domains shown)
VH: B1 VH with L34I, S99Q
VL: B1 VL with A51G, R54L, Y94F
B18: 6E7 antibody affinity modulation variant V81 (antibody, V domains shown)
VH: B1 VH with L34I, S99Q
VL: B1 VL with W32L, R54L, Y94F
B19: 6E7 antibody affinity modulation variant V7 (antibody, V domains shown)
VH: B1 VH with Y32E, L34I, S99Q
VL: B1 VL with R54L, Y94F
B20: 6E7 antibody affinity modulation variant V94 (antibody, V domains shown)
VH: B1 VH with L34I, S99Q
VL: B1 VL with S52A, R54L, Y94F
B21: 6E7 antibody affinity modulation variant V19 (antibody, V domains shown)
VH: B1 VH with Y32S, L34I, S99Q
VL: B1 VL with R54L, Y94F
B22: 6E7 antibody affinity modulation variant V31 (antibody, V domains shown)
VH: B1 VH with L34I, D57E, S99Q
VL: B1 VL with R54L, Y94F
B23: 6E7 antibody affinity modulation variant V6 (antibody, V domains shown)
VH: B1 VH with Y32M, L34I, S99Q
VL: B1 VL with R54L, Y94F
B24: 6E7 antibody affinity modulation variant V9 (antibody, V domains shown)
VH: B1 VH with L34I, S99Q, T101G
VL: B1 VL with R54L, Y94F
B25: 6E7 antibody affinity modulation variant V30 (antibody, V domains shown)
VH: B1 VH with Y27S, L34I, S99Q
VL: B1 VL with R54L, Y94F
B26: 6E7 antibody affinity modulation variant V33 (antibody, V domains shown)
VH: B1 VH with L34I, S99Q, Y104G
VL: B1 VL with R54L, Y94F
B27: 6E7 antibody affinity modulation variant V70 (antibody, V domains shown)
VH: B1 VH with L34I, S99Q
VL: B1 VL with S52G, R54L, Y94F
B28: 6E7 antibody affinity modulation variant V8 (antibody, V domains shown)
VH: B1 VH with L34I, R59K, S99Q
VL: B1 VL with R54L, Y94F
B29: 6E7 antibody affinity modulation variant V83 (antibody, V domains shown)
VH: B1 VH with L34I, S99Q
VL: B1 VL with R54L, D92V, Y94F
B30: 6E7 antibody affinity modulation variant V22 (antibody, V domains shown)
VH: B1 VH with L34I, S99Q
VL: B1 VL with A50R, R54L, Y94F
B31: 6E7 antibody affinity modulation variant V80 (antibody, V domains shown)
VH: B1 VH with L34I, S99Q, T101N
VL: B1 VL with R54L, Y94F
B32: 6E7 antibody affinity modulation variant V10 (antibody, V domains shown)
VH: B1 VH with L34I, S99Q
VL: B1 VL with A50S, R54L, Y94F
B33: 6E7 antibody affinity modulation variant V90 (antibody, V domains shown)
VH: B1 VH with Y32E, L34I, S99Q
VL: B1 VL with S31R, R54L, Y94F
B34: 6E7 antibody affinity modulation variant V11 (antibody, V domains shown)
VH: B1 VH with L34I, S99Q
VL: B1 VL with R54L, D92A, Y94F

What follows are binders tested against T1, human TREM2 (triggering receptor expressed on myeloid cells 2) (human) (assay: 2nd screen, 2 nM Ab).
B1 was tested, and the Binding Signal (fold over 6E7 parental antibody) was 4 fold. B2 showed a Binding Signal (fold over 6E7 parental antibody) of 3.44 fold. With B3 the Binding Signal (fold over 6E7 parental antibody) was 5.11 fold. Work on B4 yielded a Binding Signal (fold over 6E7 parental antibody) of 3.69 fold. B5 was tested, and the Binding Signal (fold over 6E7 parental antibody) was 3.41 fold.

Each binder was assayed against T1, human TREM2 (triggering receptor expressed on myeloid cells 2) (human) (assay: 1st screen, 10 nM Ab).
Work on B1 yielded a Binding Signal (fold over 6E7 parental antibody) of 3.38 fold. In the case of B2, the Binding Signal (fold over 6E7 parental antibody) is reported as 4.34 fold. In the case of B3, the Binding Signal (fold over 6E7 parental antibody) is reported as 6.15 fold. In the case of B4, the Binding Signal (fold over 6E7 parental antibody) is reported as 3.46 fold. For B5, the Binding Signal (fold over 6E7 parental antibody) was 4.48 fold.

The binders below were run against T1, human TREM2 (triggering receptor expressed on myeloid cells 2) (human) (assay: 2nd screen, 10 nM Ab).
B1 showed a Binding Signal (fold over 6E7 parental antibody) of 3.44 fold. Binder B2 has a Binding Signal (fold over 6E7 parental antibody) of 4.36 fold. For B3, the Binding Signal (fold over 6E7 parental antibody) was 5.81 fold. Work on B4 yielded a Binding Signal (fold over 6E7 parental antibody) of 3.49 fold. B5 was tested, and the Binding Signal (fold over 6E7 parental antibody) was 4.16 fold.

These binders were tested against T1, human TREM2 (triggering receptor expressed on myeloid cells 2) (human) (assay: 1st screen, 110 nM Ab).
B6 showed a Binding Signal (fold over 6E7 parental antibody) of 0.76 fold. With B7 the Binding Signal (fold over 6E7 parental antibody) was 0.82 fold. B8 gave a Binding Signal (fold over 6E7 parental antibody) of 0.18 fold. B9 was tested, and the Binding Signal (fold over 6E7 parental antibody) was 0.25 fold. With B10 the Binding Signal (fold over 6E7 parental antibody) was 0.17 fold. For B11, the Binding Signal (fold over 6E7 parental antibody) was 0.4 fold. Work on B12 yielded a Binding Signal (fold over 6E7 parental antibody) of 0.86 fold. B13 gave a Binding Signal (fold over 6E7 parental antibody) of 0.37 fold. Binder B14 has a Binding Signal (fold over 6E7 parental antibody) of 0.35 fold. For B15, the Binding Signal (fold over 6E7 parental antibody) was 0.7 fold. B16 gave a Binding Signal (fold over 6E7 parental antibody) of 0.22 fold. In the case of B17, the Binding Signal (fold over 6E7 parental antibody) is reported as 0.3 fold. With B18 the Binding Signal (fold over 6E7 parental antibody) was 0.17 fold. B19 was tested, and the Binding Signal (fold over 6E7 parental antibody) was 0.11 fold. In the case of B20, the Binding Signal (fold over 6E7 parental antibody) is reported as 0.31 fold. B21 was tested, and the Binding Signal (fold over 6E7 parental antibody) was 0.59 fold. For B22, the Binding Signal (fold over 6E7 parental antibody) was 0.61 fold. In the case of B23, the Binding Signal (fold over 6E7 parental antibody) is reported as 0.2 fold. In the case of B24, the Binding Signal (fold over 6E7 parental antibody) is reported as 0.67 fold. Work on B25 yielded a Binding Signal (fold over 6E7 parental antibody) of 0.79 fold. In the case of B26, the Binding Signal (fold over 6E7 parental antibody) is reported as 0.23 fold. B27 showed a Binding Signal (fold over 6E7 parental antibody) of 0.79 fold. Binder B28 has a Binding Signal (fold over 6E7 parental antibody) of 0.28 fold. B29 gave a Binding Signal (fold over 6E7 parental antibody) of 0.2 fold. With B30 the Binding Signal (fold over 6E7 parental antibody) was 0.3 fold. For B31, the Binding Signal (fold over 6E7 parental antibody) was 0.59 fold. Binder B32 has a Binding Signal (fold over 6E7 parental antibody) of 0.76 fold. B33 gave a Binding Signal (fold over 6E7 parental antibody) of 0.33 fold. For B34, the Binding Signal (fold over 6E7 parental antibody) was 0.79 fold.

Each binder was assayed against T1, human TREM2 (triggering receptor expressed on myeloid cells 2) (human) (assay: 2nd screen, 100 nM Ab).
With B6 the Binding Signal (fold over 6E7 parental antibody) was 0.68 fold. Binder B7 has a Binding Signal (fold over 6E7 parental antibody) of 0.89 fold. For B8, the Binding Signal (fold over 6E7 parental antibody) was 0.52 fold. In the case of B9, the Binding Signal (fold over 6E7 parental antibody) is reported as 0.61 fold. Work on B10 yielded a Binding Signal (fold over 6E7 parental antibody) of 0.42 fold. With B11 the Binding Signal (fold over 6E7 parental antibody) was 0.4 fold. Binder B12 has a Binding Signal (fold over 6E7 parental antibody) of 1.11 fold. B13 gave a Binding Signal (fold over 6E7 parental antibody) of 0.48 fold. Work on B14 yielded a Binding Signal (fold over 6E7 parental antibody) of 1.05 fold. In the case of B15, the Binding Signal (fold over 6E7 parental antibody) is reported as 0.52 fold. In the case of B16, the Binding Signal (fold over 6E7 parental antibody) is reported as 0.65 fold. For B17, the Binding Signal (fold over 6E7 parental antibody) was 0.79 fold. B18 showed a Binding Signal (fold over 6E7 parental antibody) of 0.23 fold. For B19, the Binding Signal (fold over 6E7 parental antibody) was 0.32 fold. B20 gave a Binding Signal (fold over 6E7 parental antibody) of 0.87 fold. With B21 the Binding Signal (fold over 6E7 parental antibody) was 0.48 fold. With B22 the Binding Signal (fold over 6E7 parental antibody) was 0.73 fold. Binder B23 has a Binding Signal (fold over 6E7 parental antibody) of 0.56 fold. B24 was tested, and the Binding Signal (fold over 6E7 parental antibody) was 0.54 fold. B25 gave a Binding Signal (fold over 6E7 parental antibody) of 0.72 fold. B26 showed a Binding Signal (fold over 6E7 parental antibody) of 0.34 fold. With B27 the Binding Signal (fold over 6E7 parental antibody) was 0.84 fold. For B28, the Binding Signal (fold over 6E7 parental antibody) was 0.77 fold. In the case of B29, the Binding Signal (fold over 6E7 parental antibody) is reported as 0.29 fold. B30 gave a Binding Signal (fold over 6E7 parental antibody) of 0.71 fold. With B31 the Binding Signal (fold over 6E7 parental antibody) was 0.5 fold. With B32 the Binding Signal (fold over 6E7 parental antibody) was 0.7 fold. B33 showed a Binding Signal (fold over 6E7 parental antibody) of 0.36 fold. B34 was tested, and the Binding Signal (fold over 6E7 parental antibody) was 0.42 fold.
